Experimental findings from patent US20150104457A1 (OREGA BIOTECH, published 2015) are described below.

What is called Kd is the equilibrium constant for the complex coming apart.

Residue numbers refer to the chain shown, from its start. “And” between values parts separate entries of the source, which are not always exact repeats. Identical values can stand only once.

Experiment [1] deals with T1, recombinant human IL-17A/F (heterodimer) (human, UniProt Q16552 24-155; Q96PD4 31-163).
T1 sequence 1: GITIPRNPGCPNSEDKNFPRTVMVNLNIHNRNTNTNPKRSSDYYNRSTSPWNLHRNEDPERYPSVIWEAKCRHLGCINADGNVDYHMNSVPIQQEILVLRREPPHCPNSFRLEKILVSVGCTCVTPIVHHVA
T1 sequence 2: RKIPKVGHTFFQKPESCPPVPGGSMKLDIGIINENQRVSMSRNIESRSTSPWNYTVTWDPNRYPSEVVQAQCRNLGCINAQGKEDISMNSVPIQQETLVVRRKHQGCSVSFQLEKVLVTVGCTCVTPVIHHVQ
Put plainly: cell-based or functional assay.

In experiment [2] the target is T2, recombinant human IL-17A (human, UniProt Q16552 24-155).
T2 sequence: T1 sequence 1
Description: cell-based or functional assay.

The target of experiment [3] is T1, recombinant human IL-17A/F (heterodimer). Put plainly: competitive ELISA in solution (method of Friguet et al.).
Description: (§1) For this determination a competitive ELISA with the various isoforms was performed.
(§2) Appropriate concentrations of the respective antigens and monoclonal antibodies were mixed in assay buffer and incubated overnight with continuous shaking at room temperature. The same monoclonal antibodies in the same concentration, but without antigen were used as positive reference (100% value). Pre-incubated antibodies were added to the plates. The plates were incubated with continuous shaking and washed 4× with 250 μL/well TBS-TRP.
Experiment [4] concerns the target T2, recombinant human IL-17A. The experiment is described as above.
Description: as §1, §2

B1: OREG-210 (antibody, V domains shown)
VH: QVQLKESGPDLVAPSQSLSITCTVSGFSLTSYGIHWVRQPPGKGLEWLVVIWSDGTTTYNSALKSRLSISKDNSKSQVFLKMNSLQTDDTAMYYCASSYDYLYHYTMDYWGQGTSVTVSS
VL: DVVMTQTPLSLPVSLGDQASISCRSSQSLVHSNGNTYFHWYLQKPGQSPKLLIYKVSNRFSGVPDRFSGSGSGTDFTLKISRVEAEDLGVYFCSQSTHVPLTFGAGTNLELK
notes: also called mAb OREG-210; Ab OREG-210
For the molecule B1, the “IC50, neutralization of IL-6 production in normal human dermal fibroblasts” value (“IC50, neutralization of IL-6 production” for short) is 167 ng/ml and 1.1 nM in experiment [1]; 110 ng/ml and 0.74 nM with recombinant human IL-17A [2]. Also, the Ka is 3.4e+08 M⁻¹ in experiment [3] and 6.4e+08 M⁻¹ in the experiment with recombinant human IL-17A [4]. For the same molecule, the Kd in experiment [3] is 2.94 nM; with recombinant human IL-17A [4], 1.56 nM.

B2: F(ab')2 fragment of OREG-210 (other)
VH: B1 VH
VL: B1 VL
Regarding B2, the “IC50, neutralization of IL-6 production” value in experiment [1] is 1160 ng/ml and 11.6 nM; in the experiment with recombinant human IL-17A [2], 1050 ng/ml and 10.5 nM.

B3: Fab fragment of OREG-210 (Fab, V domains shown)
VH: B1 VH
VL: B1 VL
B3: the “IC50, neutralization of IL-6 production” value in experiment [1] is 605 ng/ml and 12.1 nM; with recombinant human IL-17A [2], 1120 ng/ml and 22.4 nM.

B4: OREG-203 (antibody, V domains shown)
VH: QAQLQQSGAELVKPGASVKMSCKAFGYTFTTFPIEWMKQNHGKSLEWIGNFHPYNDYTKYNEKFKGKAKLTVEKSSRTVYLELSRLTSDDSAVYYCARGAYYGDYVSHTMDFWGQGTSVTVSS
VL: NIVLTQSPASLAVSLGQRATISCRASESVDSYGNSFMHWYQQKPGQPPKLLIYLASNLESGVPARFSGSGSRTDFTLTIDPVEADDAAIYYCQQNNEDPLTFGAGTKLELK
notes: also called mAb OREG-203; Ab OREG-203
With B4, the “IC50, neutralization of IL-6 production” value in experiment [1] was 30.2 ng/ml and 0.2 nM; with recombinant human IL-17A [2], 115 ng/ml and 0.76 nM. Besides, the Ka in experiment [3] was 1e+09 M⁻¹; in the experiment with recombinant human IL-17A [4], 1.4e+09 M⁻¹. Besides, the Kd in experiment [3] is 1 nM; with recombinant human IL-17A [4], 0.714 nM.

B5: Fab fragment of OREG-203 (Fab, V domains shown)
VH: B4 VH
VL: B4 VL
B5: the “IC50, neutralization of IL-6 production” value in experiment [1] is 15.3 ng/ml and 0.306 nM; with recombinant human IL-17A [2], 75.9 ng/ml and 1.52 nM.

B6: OREG-207 (antibody, V domains shown)
VH: B4 VH with R77S
VL: B4 VL
notes: also called mAb OREG-207; Ab OREG-207
On to B6, for which the “IC50, neutralization of IL-6 production” value in experiment [1] was 40.1 ng/ml and 0.26 nM; with recombinant human IL-17A [2], 96.5 ng/ml and 0.64 nM. Moreover, the Ka in experiment [3] worked out at 2.67e+09 M⁻¹; with recombinant human IL-17A [4], 1.54e+09 M⁻¹. Also, the Kd came to 0.375 nM in experiment [3] and 0.649 nM with recombinant human IL-17A [4].
